According to doi:10.1101/2023.06.06.543845 (bioRxiv, 2023):

Columns and labels:
[1] = target: the molecule itself; test: crystal structure
[2] = target: T1, Mycobacterium tuberculosis NrdI (Mycobacterium tuberculosis, UniProt P9WIZ3); test: crystal structure
T1 sequence: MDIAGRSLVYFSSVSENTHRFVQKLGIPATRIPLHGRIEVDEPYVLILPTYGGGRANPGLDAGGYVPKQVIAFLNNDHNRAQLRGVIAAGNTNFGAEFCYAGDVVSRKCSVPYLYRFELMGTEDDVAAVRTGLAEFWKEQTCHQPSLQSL

B1: Mycobacterium tuberculosis NrdF2 (R2 subunit of the Class Ib ribonucleotide reductase) (enzyme)
chain: TGNAKLIDRVSAINWNRLQDEKDAEVWDRLTGNFWLPEKVPVSNDIPSWGTLTAGEKQLTMRVFTGLTMLDTIQGTVGAVSLIPDALTPHEEAVLTNIAFMESVHAKSYSQIFSTLCSTAEIDDAFRWSEENRNLQRKAEIVLQYYRGDEPLKRKVASTLLESFLFYSGFYLPMYWSSRAKLTNTADMIRLIIRDEAVHGYYIGYKFQRGLALVDDVTRAELKDYTYELLFELYDNEVEYTQDLYDEVGLTEDVKKFLRYNANKALMNLGYEALFPRDETDVNPAILSALSPNADENHDFFSGSGSSYVIGKAVVTEDDDWDF
For B1, the “stoichiometry N” value [1] was 2 and the “stoichiometry N” value [2] was 2 NrdF2 per NrdI.
